Columns and labels:
[1] = biological target: T1, extracellular domain of human L1CAM (isoform 1) fused to a poly-histidine tag via its carboxy terminus (human, UniProt P32004 20-1120); assay: BLI, His-tagged human L1CAM
T1 construct: Bought (Creative Biomart); also called L1CAM-His; huL1CAM protein
Experimental: (§1) Binding to L1CAM in Solution. Affinity to human L1CAM was measured by BLI using an Octet Red96e instrument. […] The data was prepared by reference well subtraction, and response curves were globally fit to a 1:1 Langmuir binding model.

[2] = biological target: T2, soluble cynomolgus monkey L1CAM, His-tagged, monomeric (cynomolgus monkey, UniProt A0A2K5URB5 20-1120); assay: BLI, cynomolgus against human L1CAM-His
T2 construct: also called cyL1CAM protein; cynomolgus L1CAM-His
Experimental: (§2) Cross-reactivity to Cynomolgus Monkey L1CAM. Affinity to cynomolgus L1CAM was measured by BLI using an Octet Red96e instrument. […] The data was prepared by reference well subtraction, and response curves were globally fit to a 1:1 Langmuir binding model.

[3] = biological target: T3, human CHL-1 (residues 25-1096 with a C-terminal 10xHis tag) (human, UniProt O00533 25-1096); assay: ELISA, plates coated with human CHL-1
T3 construct: range 25-1096; also called L1CAM-2; L1CAM2
T3 sequence: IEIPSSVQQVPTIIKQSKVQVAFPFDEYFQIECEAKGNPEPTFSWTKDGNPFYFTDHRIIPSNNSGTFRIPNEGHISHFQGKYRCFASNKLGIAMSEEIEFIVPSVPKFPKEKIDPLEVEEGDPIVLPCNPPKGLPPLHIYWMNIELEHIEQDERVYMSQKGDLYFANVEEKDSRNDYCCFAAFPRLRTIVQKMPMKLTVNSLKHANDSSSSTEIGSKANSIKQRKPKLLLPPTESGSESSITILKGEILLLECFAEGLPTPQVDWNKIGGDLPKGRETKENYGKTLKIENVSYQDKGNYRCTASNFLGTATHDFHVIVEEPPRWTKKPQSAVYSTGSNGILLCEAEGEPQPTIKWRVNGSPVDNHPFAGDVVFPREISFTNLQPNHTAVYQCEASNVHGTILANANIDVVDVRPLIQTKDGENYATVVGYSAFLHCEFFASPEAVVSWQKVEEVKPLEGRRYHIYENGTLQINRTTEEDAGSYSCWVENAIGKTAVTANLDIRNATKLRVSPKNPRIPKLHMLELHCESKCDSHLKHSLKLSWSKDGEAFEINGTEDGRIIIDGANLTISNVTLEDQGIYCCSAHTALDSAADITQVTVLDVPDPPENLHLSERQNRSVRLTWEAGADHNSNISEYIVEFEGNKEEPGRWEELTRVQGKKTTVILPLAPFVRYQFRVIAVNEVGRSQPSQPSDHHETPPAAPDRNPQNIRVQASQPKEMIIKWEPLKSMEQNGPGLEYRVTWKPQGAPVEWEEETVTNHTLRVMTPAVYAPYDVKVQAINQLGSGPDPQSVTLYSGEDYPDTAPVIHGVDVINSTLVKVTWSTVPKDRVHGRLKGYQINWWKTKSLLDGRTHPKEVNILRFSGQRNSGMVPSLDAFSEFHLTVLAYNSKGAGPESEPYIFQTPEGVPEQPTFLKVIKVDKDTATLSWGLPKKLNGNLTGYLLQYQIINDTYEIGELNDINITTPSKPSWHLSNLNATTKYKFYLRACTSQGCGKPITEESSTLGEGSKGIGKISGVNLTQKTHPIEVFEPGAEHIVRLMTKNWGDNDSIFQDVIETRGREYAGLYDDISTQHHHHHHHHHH
Description: Selectivity. […] These proteins are other members of the L1 family of cell adhesion proteins and have between 49% and 55% sequence similarity with L1CAM in the extracellular portion. […] Positive control antibodies were included for each homolog. […] Epitope. The extracellular portion of L1CAM contains six immunoglobulin-like (Ig) domains and five fibronectin type III (FN) domains. To narrow down the binding region of the development candidate mAbs, truncated versions of human L1CAM protein (Ig domain, residues 21-605; FN domain, residues 606-1116; each with a C-terminal 6×His tag) were recombinantly produced, followed by a BLI experiment to test binding at 50 and 100 nM. […] 6×His tag is set forth in SEQ ID NO: 316.

[4] = biological target: T4, mouse L1CAM on transiently transfected HEK293FT cells (mouse, UniProt P11627 20-1260); assay: flow cytometry, cells transfected with mouse L1CAM
T4 construct: whole, on cells; also called mouse L1CAM on cells

[5] = biological target: T1, extracellular domain of human L1CAM …; assay: summary table; binding to soluble human L1CAM (monomer)
Experimental: as §1

[6] = biological target: T2, soluble cynomolgus monkey L1CAM, …; assay: summary table; soluble cynomolgus monkey L1CAM (monomer)
Experimental: as §2

[7] = biological target: T5, human L1CAM on cells (human, UniProt P32004 20-1257); assay: summary table; binding to cells with endogenous L1CAM (MCF-7)
T5 construct: Overexpressed on stably transfected HEK293T cells or endogenous on MCF-7 and MDA-MB-231 cells; also called HEK293T-hL1CAM
Experimental: (§3) Binding to L1CAM on Cells. […] Cells were then incubated with an AlexaFluor 647 goat anti-human Fc secondary antibody. After washing, the stained cells were analyzed by flow cytometry.
(§4) The binding curves for each antibody and cell line normalized to secondary antibody only staining (MFI ratio) are shown in FIGS. 14A-14C. EC50 values were determined by non-linear regression (Table 70). […] It is possible that differences in the conformation and oligomerization of L1CAM, depending on the surface expression level, contributed to the binding pattern. […] An avidity effect due to high levels of L1CAM surface expression may have contributed to the strong binding observed in this experiment.

[8] = biological target: T5, human L1CAM on cells; assay: summary table; binding to cells with endogenous L1CAM (MDA-MB-231)
Experimental: as §3, §4

[9] = biological target: T5, human L1CAM on cells; assay: flow cytometry, MCF-7 cells, AlexaFluor 647 anti-human Fc secondary
Experimental: as §3, §4

[10] = biological target: T5, human L1CAM on cells; assay: summary table; binding to cells overexpressing human L1CAM (HEK293T)
Experimental: as §3, §4

[11] = biological target: T5, human L1CAM on cells; assay: flow cytometry, MDA-MB-231 cells, AlexaFluor 647 anti-human Fc secondary
Experimental: as §3, §4

[12] = biological target: T6, soluble mouse L1CAM (monomer), His-tagged (mouse, UniProt P11627 20-1123, limits assumed); assay: BLI (Octet Red96e), His-tagged L1CAM on Ni-NTA biosensors, mAb as analyte
T6 construct: read as mouse
Experimental: Cross-reactivity to Mouse L1CAM. Affinity to mouse L1CAM was measured by BLI using an Octet Red96e instrument. […] The data was prepared by reference well subtraction, and response curves were globally fit to a 1:1 Langmuir binding model.

[13] = biological target: T5, human L1CAM on cells; assay: flow cytometry, HEK293T-hL1CAM cells, AlexaFluor 647 anti-human Fc secondary
Experimental: as §3, §4

[14] = biological target: T1, extracellular domain of human L1CAM …; assay: BLI (Octet Red96e), His-tagged human L1CAM on Ni-NTA biosensors, mAb as analyte, 1:1 fit
Experimental: as §1

[15] = biological target: T2, soluble cynomolgus monkey L1CAM, …; assay: BLI (Octet Red96e), His-tagged cynomolgus L1CAM on Ni-NTA biosensors, mAb as analyte, 1:1 fit
Experimental: as §2

T1 sequence (P32004 20-1120): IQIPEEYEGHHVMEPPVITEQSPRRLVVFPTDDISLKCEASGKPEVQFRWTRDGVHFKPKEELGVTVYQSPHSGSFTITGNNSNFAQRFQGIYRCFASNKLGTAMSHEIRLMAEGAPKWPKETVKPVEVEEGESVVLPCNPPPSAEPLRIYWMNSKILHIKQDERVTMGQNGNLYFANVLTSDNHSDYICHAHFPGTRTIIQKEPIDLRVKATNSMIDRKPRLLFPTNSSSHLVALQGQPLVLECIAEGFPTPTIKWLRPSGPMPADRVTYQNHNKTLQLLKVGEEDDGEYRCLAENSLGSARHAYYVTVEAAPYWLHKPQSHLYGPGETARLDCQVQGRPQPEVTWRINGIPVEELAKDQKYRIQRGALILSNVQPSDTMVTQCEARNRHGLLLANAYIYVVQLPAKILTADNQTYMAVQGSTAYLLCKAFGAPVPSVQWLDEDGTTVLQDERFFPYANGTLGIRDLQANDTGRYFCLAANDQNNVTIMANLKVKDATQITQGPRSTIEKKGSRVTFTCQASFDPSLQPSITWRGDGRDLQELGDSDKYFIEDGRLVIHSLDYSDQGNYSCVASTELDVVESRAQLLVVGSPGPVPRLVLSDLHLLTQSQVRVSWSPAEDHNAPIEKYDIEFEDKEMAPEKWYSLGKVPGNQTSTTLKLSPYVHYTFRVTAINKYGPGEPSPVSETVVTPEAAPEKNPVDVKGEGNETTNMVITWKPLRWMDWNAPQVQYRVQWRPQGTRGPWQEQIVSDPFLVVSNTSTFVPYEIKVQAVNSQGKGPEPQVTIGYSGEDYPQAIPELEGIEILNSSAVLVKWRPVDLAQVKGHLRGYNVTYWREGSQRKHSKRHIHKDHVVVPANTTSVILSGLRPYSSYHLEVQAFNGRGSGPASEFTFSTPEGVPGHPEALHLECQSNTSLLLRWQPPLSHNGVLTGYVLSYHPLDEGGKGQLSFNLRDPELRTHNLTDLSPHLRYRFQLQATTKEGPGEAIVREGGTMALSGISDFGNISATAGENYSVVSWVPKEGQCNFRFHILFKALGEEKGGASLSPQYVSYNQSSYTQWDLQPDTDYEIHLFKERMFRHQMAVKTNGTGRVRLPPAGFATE
T5 sequence (P32004 20-1257): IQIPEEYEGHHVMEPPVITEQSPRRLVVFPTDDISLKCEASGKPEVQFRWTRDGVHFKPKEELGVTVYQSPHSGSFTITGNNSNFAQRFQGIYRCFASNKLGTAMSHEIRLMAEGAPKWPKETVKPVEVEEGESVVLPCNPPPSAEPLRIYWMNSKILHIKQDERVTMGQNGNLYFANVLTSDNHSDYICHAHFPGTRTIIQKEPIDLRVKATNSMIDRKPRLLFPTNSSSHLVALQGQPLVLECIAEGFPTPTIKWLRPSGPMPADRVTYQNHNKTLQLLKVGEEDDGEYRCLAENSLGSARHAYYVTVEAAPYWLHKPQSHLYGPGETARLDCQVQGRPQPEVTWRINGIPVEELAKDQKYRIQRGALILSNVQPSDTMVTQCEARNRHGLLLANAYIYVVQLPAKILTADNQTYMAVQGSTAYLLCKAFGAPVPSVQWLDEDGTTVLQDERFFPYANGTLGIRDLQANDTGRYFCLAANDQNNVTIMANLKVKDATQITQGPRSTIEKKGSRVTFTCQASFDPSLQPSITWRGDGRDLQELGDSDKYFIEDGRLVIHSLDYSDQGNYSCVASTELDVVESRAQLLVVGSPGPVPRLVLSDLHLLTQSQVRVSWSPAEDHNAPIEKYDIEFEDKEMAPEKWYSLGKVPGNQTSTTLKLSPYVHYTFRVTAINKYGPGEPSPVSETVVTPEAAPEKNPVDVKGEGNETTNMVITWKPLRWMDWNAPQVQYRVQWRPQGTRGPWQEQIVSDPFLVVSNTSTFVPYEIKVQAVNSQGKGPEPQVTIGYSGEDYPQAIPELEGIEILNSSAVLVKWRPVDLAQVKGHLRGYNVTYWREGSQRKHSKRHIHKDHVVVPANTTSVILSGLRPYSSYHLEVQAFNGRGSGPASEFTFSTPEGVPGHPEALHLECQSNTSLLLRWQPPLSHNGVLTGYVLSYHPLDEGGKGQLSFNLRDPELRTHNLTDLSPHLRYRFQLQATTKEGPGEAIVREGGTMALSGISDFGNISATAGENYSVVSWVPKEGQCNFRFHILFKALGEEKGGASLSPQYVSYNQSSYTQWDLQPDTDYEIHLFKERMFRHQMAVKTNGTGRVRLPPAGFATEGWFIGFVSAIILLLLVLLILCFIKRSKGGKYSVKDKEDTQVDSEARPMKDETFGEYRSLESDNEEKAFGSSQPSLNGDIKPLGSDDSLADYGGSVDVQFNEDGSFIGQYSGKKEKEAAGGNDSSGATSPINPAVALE
T4 sequence (P11627 20-1260): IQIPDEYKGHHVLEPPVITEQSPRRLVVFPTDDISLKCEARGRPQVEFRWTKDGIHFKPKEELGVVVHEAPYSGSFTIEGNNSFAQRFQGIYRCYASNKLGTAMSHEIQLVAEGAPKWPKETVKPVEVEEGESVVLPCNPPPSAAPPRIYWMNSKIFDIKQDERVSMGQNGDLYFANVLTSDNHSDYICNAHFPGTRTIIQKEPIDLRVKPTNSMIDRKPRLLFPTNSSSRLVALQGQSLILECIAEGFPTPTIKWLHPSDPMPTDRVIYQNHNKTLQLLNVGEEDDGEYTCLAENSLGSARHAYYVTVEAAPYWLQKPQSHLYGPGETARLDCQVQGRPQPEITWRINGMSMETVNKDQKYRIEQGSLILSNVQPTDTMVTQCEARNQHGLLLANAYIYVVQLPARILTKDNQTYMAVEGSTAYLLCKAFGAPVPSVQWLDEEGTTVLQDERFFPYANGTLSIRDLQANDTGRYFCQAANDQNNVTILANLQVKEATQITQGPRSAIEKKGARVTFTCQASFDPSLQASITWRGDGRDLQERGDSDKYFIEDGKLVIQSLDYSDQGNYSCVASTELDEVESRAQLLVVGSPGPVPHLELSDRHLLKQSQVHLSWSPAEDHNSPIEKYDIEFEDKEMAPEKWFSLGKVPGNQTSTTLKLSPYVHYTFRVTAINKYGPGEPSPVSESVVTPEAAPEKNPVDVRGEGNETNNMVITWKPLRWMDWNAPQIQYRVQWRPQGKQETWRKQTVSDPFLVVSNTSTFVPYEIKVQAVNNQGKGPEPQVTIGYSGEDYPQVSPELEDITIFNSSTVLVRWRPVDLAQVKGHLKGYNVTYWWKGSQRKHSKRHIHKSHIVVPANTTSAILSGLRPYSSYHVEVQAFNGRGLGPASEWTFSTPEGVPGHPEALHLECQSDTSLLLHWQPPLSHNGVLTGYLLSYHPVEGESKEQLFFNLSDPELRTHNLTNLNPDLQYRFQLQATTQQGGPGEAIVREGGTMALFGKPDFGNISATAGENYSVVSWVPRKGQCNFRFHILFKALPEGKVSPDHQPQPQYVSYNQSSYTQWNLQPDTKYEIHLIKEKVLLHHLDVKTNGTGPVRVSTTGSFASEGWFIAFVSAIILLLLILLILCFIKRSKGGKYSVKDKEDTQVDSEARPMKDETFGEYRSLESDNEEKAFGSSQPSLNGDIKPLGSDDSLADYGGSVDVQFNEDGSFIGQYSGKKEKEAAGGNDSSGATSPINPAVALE
T6 sequence (P11627 20-1123 limits assumed): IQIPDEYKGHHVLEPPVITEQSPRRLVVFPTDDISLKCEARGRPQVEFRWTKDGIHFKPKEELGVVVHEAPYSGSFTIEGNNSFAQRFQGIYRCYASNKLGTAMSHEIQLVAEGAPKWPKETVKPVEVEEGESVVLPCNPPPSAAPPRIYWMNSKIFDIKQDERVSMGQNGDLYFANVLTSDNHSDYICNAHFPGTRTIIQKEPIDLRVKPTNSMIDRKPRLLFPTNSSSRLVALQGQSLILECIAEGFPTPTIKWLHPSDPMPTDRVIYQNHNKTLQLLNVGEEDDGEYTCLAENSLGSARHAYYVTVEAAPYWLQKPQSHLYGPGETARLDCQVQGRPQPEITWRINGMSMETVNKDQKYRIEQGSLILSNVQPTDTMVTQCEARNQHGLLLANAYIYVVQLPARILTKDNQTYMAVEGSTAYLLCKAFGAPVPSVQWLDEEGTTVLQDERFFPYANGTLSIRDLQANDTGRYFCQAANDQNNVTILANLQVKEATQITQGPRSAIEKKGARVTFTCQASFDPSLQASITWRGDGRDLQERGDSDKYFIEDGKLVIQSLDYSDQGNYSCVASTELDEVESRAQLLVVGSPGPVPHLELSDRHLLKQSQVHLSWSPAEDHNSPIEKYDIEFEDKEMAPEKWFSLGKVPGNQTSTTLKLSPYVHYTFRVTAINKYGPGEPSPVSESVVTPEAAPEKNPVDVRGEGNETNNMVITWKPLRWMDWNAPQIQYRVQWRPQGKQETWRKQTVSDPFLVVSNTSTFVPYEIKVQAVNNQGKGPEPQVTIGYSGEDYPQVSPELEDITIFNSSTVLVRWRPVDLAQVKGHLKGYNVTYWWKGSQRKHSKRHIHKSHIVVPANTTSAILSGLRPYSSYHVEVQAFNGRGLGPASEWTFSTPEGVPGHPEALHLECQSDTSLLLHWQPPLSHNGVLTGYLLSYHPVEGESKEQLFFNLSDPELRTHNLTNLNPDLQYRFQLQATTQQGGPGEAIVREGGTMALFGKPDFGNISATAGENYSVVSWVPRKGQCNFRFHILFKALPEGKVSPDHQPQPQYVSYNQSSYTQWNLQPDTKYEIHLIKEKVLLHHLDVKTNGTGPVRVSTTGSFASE

B1: TDI-Y-004 (antibody, human IgG1, kappa, V domains shown)
VH: QVQLVQSGAEVKKPGSSVKVSCKASGYTFTNYYIHWVRQAPGQGLEWMGKIGPGSGSPYYQGMFKDRVTITADESTSTAYMELSSLRSEDTAVYYCARWLLPFDYWGQGTLVTVSS
VL: EIVLTQSPGTLSLSPGERATLSCRASSSVNYMHWYQQKPGQAPRLLIYATSILASGIPDRFSGSGSGTDYTLTISRLEPEDFAVYYCQQFSSDPLTFGGGTKVEIKR
notes: Human IgG1, kappa; also called humanized 143G03 (N61Q) mAb; hz143G03 (N61Q)
- fold difference in KD against TDI-Y-005 [1]: ~10 fold
- fold difference of KD against human L1CAM [2]: ≤ 1.2 fold
- binding result [3]: no binding (tested: 1 µM)
- binding result [4]: no binding
- Kd [5]: 0.35 nM
- koff [5]: 9.5e-05 s⁻¹
- kon [5]: 270000 M⁻¹ s⁻¹
- Kd [6]: 0.3 nM
- koff [6]: 4.7e-05 s⁻¹
- kon [6]: 160000 M⁻¹ s⁻¹
- EC50 [7]: 1.3 nM
- EC50 [8]: 2.5 nM
- EC50 [9]: 1.3 nM
- EC50 [10]: 2.2 nM
- EC50 [11]: 2.5 nM
- binding result [12]: no binding (tested: dilution series starting at 50 nM)
- EC50 [13]: 2.2 nM
- Kd [14]: 0.35 nM
- koff [14]: 9.5e-05 s⁻¹
- kon [14]: 270000 M⁻¹ s⁻¹
- Kd [15]: 0.3 nM
- koff [15]: 4.7e-05 s⁻¹
- kon [15]: 160000 M⁻¹ s⁻¹

Reference: patent publication US20250340636A1 (Memorial Sloan Kettering, published 2025)
